Source: US11795460B2, “Compositions and methods for TTR gene editing and treating ATTR amyloidosis” (Intellia Therapeutics, Inc., priority 2017, dated 2023)
Strand notation (5' to 3'): a small letter for the sugar, then the base; units joined by * are phosphorothioate-linked, units joined directly phosphodiester-linked; [ ] holds rarer units or linkages, { } end groups; capitals alone tell only the bases. m = 2'-O-methyl; r = 2'-OH (RNA)

B1: G000502: TTR Cyno specific sgRNA modified sequence, SEQ ID No. 114; guide sequence of CR000689; cross homologous between mouse and cyno (nucleic acid)
guide: mA*mC*mA*rCrArArArUrArCrCrArGrUrCrCrArGrCrGrGrUrUrUrUrArGrAmGmCmUmAmGmAmAmAmUmAmGmCrArArGrUrUrArArArArUrArArGrGrCrUrArGrUrCrCrGrUrUrArUrCrAmAmCmUmUmGmAmAmAmAmAmGmUmGmGmCmAmCmCmGmAmGmUmCmGmGmUmGmCmU*mU*mU*mU
B2: G000481: TTR sgRNA modified sequence, Human, SEQ ID No. 88; guide sequence of CR003345 (nucleic acid)
guide: mU*mC*mU*rArGrArArCrUrUrUrGrArCrCrArUrCrArGrGrUrUrUrUrArGrAmGmCmUmAmGmAmAmAmUmAmGmCrArArGrUrUrArArArArUrArArGrGrCrUrArGrUrCrCrGrUrUrArUrCrAmAmCmUmUmGmAmAmAmAmAmGmUmGmGmCmAmCmCmGmAmGmUmCmGmGmUmGmCmU*mU*mU*mU

Experiments:
murine TTR = test: Liver editing in mice with murine TTR dosed with LNP formulations (Table 29); type: in vivo, mouse; conditions: wild type CD-1 mice; 1, 0.3, 0.1, 0.03, or 0.01 mg/kg; FIG. 15A
Experimental: (§1) Unless otherwise noted, CD-1 female mice, ranging from 6-10 weeks of age were used in each study. Animals were weighed and grouped according to body weight for preparing dosing solutions based on group average weight. LNPs were dosed via the lateral tail vein in a volume of 0.2 mL per animal (approximately 10 mL per kilogram body weight). […] Body weight was measured at twenty-four hours post-administration, and animals were euthanized at various time points by exsanguination via cardiac puncture under isoflourane anesthesia. Blood was collected into serum separator tubes or into tubes containing buffered sodium citrate for plasma as described herein. […]
(§2) To quantitatively determine the efficiency of editing at the target location in the genome, sequencing was utilized to identify the presence of insertions and deletions introduced by gene editing. […]
(§3) Additional PCR was performed per the manufacturer's protocols (Illumina) to add chemistry for sequencing. […] The reads were aligned to a reference genome (e.g., the human reference genome (hg38), the cynomologus reference genome (mf5), the rat reference genome (rn6), or the mouse reference genome (mm10)) after eliminating those having low quality scores. […]

HuTTR V30M locus = test: Liver editing in humanized transgenic V30M mouse model of hereditary ATTR amyloidosis; type: in vivo; conditions: V30M humanized mice, single 1 mg/kg dose of LNP
Experimental: as §1, §2, §3

human TTR protein = test: Human TTR protein ELISA in serum and cerebrospinal fluid of V30M mice; type: in vivo, mouse; conditions: V30M humanized mice, single 1 mg/kg dose, 8 weeks post treatment
Experimental: (§4) A well-established humanized transgenic mouse model of hereditary ATTR amyloidosis that expresses the V30M pathogenic mutant form of human TTR protein was used in this Example. This mouse model recapitulates the TTR deposition phenotype in tissues observed in ATTR patients, including within the peripheral nervous system and gastrointestinal (GI) tract (See Santos et al., Neurobiol Aging. 2010 February; 31(2):280-9).
(§5) Mice (aged approximately 4-5 months) were dosed with LNP formulations prepared using the cross-flow and TFF procedures as described in Example 1. The LNPs were formulated with an N:P ratio of 6.0 and contained Lipid A, Cholesterol, DSPC, and PEG2k-DMG in a 50:38:9:2 molar ratio, respectively. The LNPs contained Cas9 mRNA (SEQ ID NO: 1) and either G000481 (“G481”) or a non-targeting control guide G000395 (“G395”; SEQ ID NO: 273), in a 1:1 ratio of gRNA:mRNA by weight.
(§6) Mice were injected via the lateral tail vein as described in Example 1 with a single 1 mg/kg (of total RNA content) dose of LNP with an n=10/group. […] Human TTR protein levels were measured in serum and cerebrospinal fluid (CSF) by ELISA as previously described by Butler et al., Amyloid. […] Other tissues (stomach, colon, sciatic nerve, dorsal root ganglion (DRG)) were collected and processed for semi-quantitative immunohistochemistry as previously described by Gonsalves et al., Amyloid. […]

[1] = test system: TTR protein amyloid deposition; test: Semi-quantitative immunohistochemistry of TTR in stomach, colon, sciatic nerve, DRG of V30M mice; type: in vivo, mouse; conditions: 8 weeks post-treatment, single 1 mg/kg dose
Experimental: as §4, §5, §6

Molecule | Liver editing, dose response (murine TTR) | Editing of TTR in livers (HuTTR V30M locus; 8 weeks post treatment) [%] | Share of editing events that were insertions (HuTTR V30M locus; remainder deletions) [%] | TTR protein levels in CSF (human TTR protein) | Knockdown of TTR plasma levels (human TTR protein; p<0.001) | Reduction in TTR staining across the treated tissues [1] [%]
B1 | A dose response for both editing and serum TTR levels was evident |  |  |  |  | 
B2 |  | 49.4 | 96.8 | not in CSF | greater than 99% | ≥ 85
